Results as given in PMC4166039.
Where two headings read alike, the source gives them in different places. Blank lines part the entries; values can stand above or below the substance they belong to.

How the values were obtained:
Test in all cases: cross-linking
[1] = target: hamster IgG1 anti-CD3E antibody (145-2C11) (hamster)
[2] = target: human IgG1 (human) [IgG part: P01857]
[3] = target: human IgG2 isotype control antibody (human) [IgG part: P01859]
[4] = target: human IgG4 isotype control antibody (human) [IgG part: P01861]
[5] = target: human IgG1 (human) [IgG part: P01857]; remark: listed apart in the source
[6] = target: mouse IgG1 (mouse) [IgG part: P01868]
[7] = target: rat IgG1 isotype control antibody (rat)
[8] = target: mouse IgG1 (mouse) [IgG part: P01868]; remark: listed apart in the source
mouse IgG2a (mouse) = target: mouse IgG2a (mouse)
[9] = target: mouse IgG2b isotype control antibody (mouse) (UniProt P01867)
mouse IgG3 (mouse) = target: mouse IgG3 (mouse)
[10] = target: rat IgG2b anti-ICAM1 antibody (YN-1) (rat) (UniProt P20761)
Chain of UniProt P20761 (P20761 whole entry, looked up): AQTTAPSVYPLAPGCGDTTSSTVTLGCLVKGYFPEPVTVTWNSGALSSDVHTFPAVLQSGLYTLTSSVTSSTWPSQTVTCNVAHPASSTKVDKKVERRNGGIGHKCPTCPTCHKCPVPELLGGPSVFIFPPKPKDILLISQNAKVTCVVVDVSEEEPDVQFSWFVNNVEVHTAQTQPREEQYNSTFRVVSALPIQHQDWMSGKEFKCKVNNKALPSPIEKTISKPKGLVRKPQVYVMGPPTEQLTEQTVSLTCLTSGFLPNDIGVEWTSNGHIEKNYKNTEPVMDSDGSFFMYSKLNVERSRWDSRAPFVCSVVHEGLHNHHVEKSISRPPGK

[11] = target: rat IgG2c isotype control antibody (rat) (UniProt P20762)
Chain of UniProt P20762 (P20762 whole entry, looked up): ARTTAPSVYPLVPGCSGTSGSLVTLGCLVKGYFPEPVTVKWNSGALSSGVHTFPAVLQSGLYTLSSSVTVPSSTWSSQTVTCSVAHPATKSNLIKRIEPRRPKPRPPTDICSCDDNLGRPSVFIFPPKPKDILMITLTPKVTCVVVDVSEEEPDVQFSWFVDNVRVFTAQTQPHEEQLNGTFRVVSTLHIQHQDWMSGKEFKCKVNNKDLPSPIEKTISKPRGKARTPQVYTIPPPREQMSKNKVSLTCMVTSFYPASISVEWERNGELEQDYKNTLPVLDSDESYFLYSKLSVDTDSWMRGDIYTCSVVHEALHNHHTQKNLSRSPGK

- percent of heavy chains cross-linked (1 h UV) [1]: 30%
- percent of heavy chains cross-linked (1 h UV) [2]: 47%
- percent of heavy chains cross-linked (2 h UV) [2]: > 55%
- percent of intact IgG cross-linked (1 h UV) [2]: 60%
- percent of intact IgG cross-linked (2 h UV) [2]: > 70%
- percent of heavy chains cross-linked (1 h UV) [3]: 17%
- percent of heavy chains cross-linked (1 h UV) [4]: 50%
- percent of heavy chains cross-linked (1 h UV) [5]: 50%
Substance: Protein Z K35BPA variant (designed binder)

Substance: Protein Z K35BPA variant with the background F5I mutation (designed binder)
- percent of heavy chains cross-linked (1 h UV) [1]: 37%

- percent of heavy chains cross-linked (1 h UV) [1]: 20%
- percent of heavy chains cross-linked (1 h UV) [2]: 37%
- percent of heavy chains cross-linked (1 h UV) [3]: 12%
- percent of heavy chains cross-linked (1 h UV) [6]: 50%
- percent of heavy chains cross-linked (2 h UV) [6]: > 55%
- percent of intact IgG cross-linked (1 h UV) [6]: 60%
- percent of intact IgG cross-linked (2 h UV) [6]: > 70%
- percent of heavy chains cross-linked (1 h UV) [7]: 10%
- percent of heavy chains cross-linked (1 h UV) [8]: 50%
Substance: Protein Z Q32BPA variant (designed binder)

- percent of heavy chains cross-linked (1 h UV) (mouse IgG2a (mouse)): 60%
- percent of heavy chains cross-linked (1 h UV) [9]: 71%
- percent of heavy chains cross-linked (15 min UV) (mouse IgG3 (mouse)): > 70%
- percent of heavy chains cross-linked (1 h UV) (mouse IgG3 (mouse)): 80%
- percent of heavy chains cross-linked (2 h UV) (mouse IgG3 (mouse)): 90%
- percent of intact IgG cross-linked (15 min UV) (mouse IgG3 (mouse)): 90%
- percent of intact IgG cross-linked (1 h UV) (mouse IgG3 (mouse)): > 95%
- percent of intact IgG cross-linked (2 h UV) (mouse IgG3 (mouse)): > 96%
- percent of heavy chains cross-linked (1 h UV) [10]: 20%
- percent of heavy chains cross-linked (1 h UV) [11]: 60%
Substance: Protein Z L17BPA variant (designed binder)
